In PMC9426472, “Blockade of the Adenylate Cyclase Toxin Synergizes with Opsonizing Antibodies to Protect Mice against Bordetella pertussis” (mBio, 2022) one finds Kd, koff and kon data, which are given here for two molecules.

The target in assay [1] is integrin αMβ2 (Homo sapiens) (UniProt P11215). The experiment in a line: SPR. Conditions: cited from earlier work.
The target in assay [2] is T1, soluble, purified mouse αMβ2 integrin (ectodomain heterodimer) (mouse, UniProt P05555 17-1105; P11835 24-701).
T1 construct: also called CR3; MAC-1
T1 sequence (P05555 other isoform, or with tags, fused parts or gaps, chain 1 of 2): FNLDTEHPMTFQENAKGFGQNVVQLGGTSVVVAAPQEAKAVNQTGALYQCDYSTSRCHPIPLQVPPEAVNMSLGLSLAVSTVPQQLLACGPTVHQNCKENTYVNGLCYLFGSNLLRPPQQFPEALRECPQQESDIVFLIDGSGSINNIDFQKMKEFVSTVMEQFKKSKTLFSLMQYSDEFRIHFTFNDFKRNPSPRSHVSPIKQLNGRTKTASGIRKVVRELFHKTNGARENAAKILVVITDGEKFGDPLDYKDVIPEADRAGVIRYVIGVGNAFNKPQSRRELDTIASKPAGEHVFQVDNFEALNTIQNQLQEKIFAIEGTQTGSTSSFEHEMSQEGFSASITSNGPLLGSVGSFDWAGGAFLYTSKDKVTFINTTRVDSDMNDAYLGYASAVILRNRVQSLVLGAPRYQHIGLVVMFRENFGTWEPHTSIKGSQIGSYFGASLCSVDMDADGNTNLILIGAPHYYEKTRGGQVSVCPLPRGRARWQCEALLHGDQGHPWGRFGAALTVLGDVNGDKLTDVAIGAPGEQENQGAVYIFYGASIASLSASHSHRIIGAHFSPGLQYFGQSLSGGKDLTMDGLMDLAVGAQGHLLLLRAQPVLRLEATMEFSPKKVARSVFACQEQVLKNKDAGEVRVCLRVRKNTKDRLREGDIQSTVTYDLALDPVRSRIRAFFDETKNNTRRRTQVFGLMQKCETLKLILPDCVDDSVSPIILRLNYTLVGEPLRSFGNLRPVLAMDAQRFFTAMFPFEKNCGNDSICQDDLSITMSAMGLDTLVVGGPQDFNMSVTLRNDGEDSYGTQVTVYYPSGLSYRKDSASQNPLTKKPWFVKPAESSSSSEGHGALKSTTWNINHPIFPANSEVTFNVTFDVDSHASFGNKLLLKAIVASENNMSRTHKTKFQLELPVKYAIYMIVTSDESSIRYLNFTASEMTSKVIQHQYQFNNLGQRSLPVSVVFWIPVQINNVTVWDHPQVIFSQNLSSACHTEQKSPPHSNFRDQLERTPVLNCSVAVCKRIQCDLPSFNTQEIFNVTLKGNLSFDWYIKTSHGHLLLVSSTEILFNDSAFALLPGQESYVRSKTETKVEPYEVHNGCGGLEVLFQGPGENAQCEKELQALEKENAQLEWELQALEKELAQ
T1 sequence (P11835 other isoform, or with tags, fused parts or gaps, chain 2 of 2): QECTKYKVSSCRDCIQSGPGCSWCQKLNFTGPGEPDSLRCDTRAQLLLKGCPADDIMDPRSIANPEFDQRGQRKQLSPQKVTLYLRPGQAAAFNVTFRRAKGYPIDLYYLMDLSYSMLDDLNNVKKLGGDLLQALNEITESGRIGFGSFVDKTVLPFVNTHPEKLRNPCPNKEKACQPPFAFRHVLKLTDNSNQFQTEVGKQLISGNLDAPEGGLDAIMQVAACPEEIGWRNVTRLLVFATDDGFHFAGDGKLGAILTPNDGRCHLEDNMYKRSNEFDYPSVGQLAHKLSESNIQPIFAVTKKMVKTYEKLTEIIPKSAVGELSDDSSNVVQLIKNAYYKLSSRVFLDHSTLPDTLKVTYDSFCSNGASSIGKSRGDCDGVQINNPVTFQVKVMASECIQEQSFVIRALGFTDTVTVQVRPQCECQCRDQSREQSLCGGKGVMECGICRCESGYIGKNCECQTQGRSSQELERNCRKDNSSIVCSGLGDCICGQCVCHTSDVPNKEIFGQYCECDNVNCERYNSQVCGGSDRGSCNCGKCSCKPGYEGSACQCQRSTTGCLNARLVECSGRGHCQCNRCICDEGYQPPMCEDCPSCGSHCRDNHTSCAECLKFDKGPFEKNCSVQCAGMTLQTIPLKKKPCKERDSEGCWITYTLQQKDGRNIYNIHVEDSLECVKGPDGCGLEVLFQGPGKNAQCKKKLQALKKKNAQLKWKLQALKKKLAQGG
The experiment in a line: SPR; Biacore X100; M1F5 Fab amine-coupled to both flow cells of a CM5 chip (~2,500 RU); ~10 RU RTX (10 nM) captured on flow cell 2 in each cycle; mouse αMβ2 at 6.13 to 200 nM flowed for 180 s, dissociation 600 s; 10 mM HEPES pH 7.4, 150 mM NaCl, 1 mM CaCl2, 1 mM MgCl2, 0.05% Tween 20; global 1:1 binding model. Conditions: both partners purified.

With “adenylate cyclase toxin RTX751 (from UniProt P0DKX7)”, the Kd (in general, a measure of binding affinity in units of concentration) in assay [1] was 57 nM.

B1: RTX751 (RTX domain of the Bordetella pertussis adenylate cyclase toxin, residues 751 to 1706) (domain or fragment)
chain: ANSDGLRKMLADLQAGWNASSVIGVQTTEISKSALELAAITGNADNLKSVDVFVDRFVQGERVAGQPVVLDVAAGGIDIASRKGERPALTFITPLAAPGEEQRRRTKTGKSEFTTFVEIVGKQDRWRIRDGAADTTIDLAKVVSQLVDANGVLKHSIKLDVIGGDGDDVVLANASRIHYDGGAGTNTVSYAALGRQDSITVSADGERFNVRKQLNNANVYREGVATQTTAYGKRTENVQYRHVELARVGQLVEVDTLEHVQHIIGGAGNDSITGNAHDNFLAGGSGDDRLDGGAGNDTLVGGEGQNTVIGGAGDDVFLQDLGVWSNQLDGGAGVDTVKYNVHQPSEERLERMGDTGIHADLQKGTVEKWPALNLFSVDHVKNIENLHGSRLNDRIAGDDQDNELWGHDGNDTIRGRGGDDILRGGLGLDTLYGEDGNDIFLQDDETVSDDIDGGAGLDTVDYSAMIHPGRIVAPHEYGFGIEADLSREWVRKASALGVDYYDNVRNVENVIGTSMKDVLIGDAQANTLMGQGGDDTVRGGDGDDLLFGGDGNDMLYGDAGNDTLYGGLGDDTLEGGAGNDWFGQTQAREHDVLRGGDGVDTVDYSQTGAHAGIAAGRIGLGILADLGAGRVDKLGEAGSSAYDTVSGIENVVGTELADRITGDAQANVLRGAGGADVLAGGEGDDVLLGGDGDDQLSGDAGRDRLYGEAGDDWFFQDAANAGNLLDGGDGRDTVDFSGPGRGLDAGAKGVFLSLGKGFASLMDEPETSNVLRNIENAVGSARDDVLIGDAGANVLNGLAGNDVLSGGAGDDVLLGDEGSDLLSGDAGNDDLFGGQGDDTYLFGVGYGHDTIYESGGGHDTIRINAGADQLWFARQGNDLEIRILGTDDALTVHDWYRDADHRVEIIHAANQAVDQAGIEKLVEAMAQYPDPGAAAAAPPAARVPDTLMQSLAVNWR
notes: Cloned into the NheI and BamHI sites of pET28a+; The vector may add N-terminal residues (His tag, thrombin site) before the Strep tag; also called recombinant RTX751
Take B1: in assay [2], the Kd turned out to be 52 nM; the koff (in general, the first-order rate constant of dissociation) amounted to 0.0028 s⁻¹; the kon (in general, a measure of how fast the partners come together) came out at 55000 M⁻¹ s⁻¹.
